Assay results from the supplement of paper PMC5998384.

Key:
HeLa Kyoto [1] = experiment: melting temperature (median over replicates), in situ; higher = more thermally stable
HeLa Kyoto [2] = experiment: solubility in G1/S (NP-40 vs SDS abundance) (log2 ratio); higher = more soluble; details: cell cycle stage: G1/S
HeLa Kyoto [3] = experiment: thermal stability score vs G1/S (z-score of summed log2 fold changes over temperatures); higher = more thermally stable than in G1/S
HeLa Kyoto [4] = experiment: solubility change mitosis vs G1/S (difference of NP-40 vs SDS log2 ratios) (log2 ratio difference); higher = more soluble in mitosis
[5] = cell cycle stage: early G1 (4.5 h after nocodazole release)
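Throughout, for melting temperature (median over replicates), in situ: HeLa Kyoto cells synchronized by double thymidine or nocodazole block, proteins quantified by TMT10plex mass spectrometry, three independent biological replicates.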
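Throughout, for solubility change mitosis vs G1/S (difference of NP-40 vs SDS log2 ratios): synchronized HeLa Kyoto cells (double thymidine block for G1/S, nocodazole release for mitosis), protein amounts in NP-40 versus SDS lysates quantified by mass spectrometry, three biological replicates.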
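Throughout, for solubility in G1/S (NP-40 vs SDS abundance): HeLa Kyoto cells arrested at G1/S by double thymidine block, proteins quantified by TMT10plex mass spectrometry in mild NP-40 versus SDS extracts, three biological replicates.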
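Throughout, for thermal stability score vs G1/S (z-score of summed log2 fold changes over temperatures): synchronized HeLa Kyoto cells, proteins quantified by TMT10plex mass spectrometry, three biological replicates, mitosis taken 0.5 h after nocodazole release, G1/S directly after double thymidine block.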

Sequence	melting temperature (HeLa Kyoto [1]; cell cycle stage: G1/S) [°C]	melting temperature (HeLa Kyoto [1]; cell cycle stage: mitosis) [°C]	solubility in G1/S (log2) (HeLa Kyoto [2])	thermal stability score (HeLa Kyoto [3]; [5])	thermal stability score (HeLa Kyoto [3]; cell cycle stage: mitosis)	solubility change mitosis (log2) (HeLa Kyoto [4])
MRCLAARVNYKTLIIICALFTLVTVLLWNKCSSDKAIQFPRRSSSGFRVDGFEKRAAASESNNYMNHVAKQQSEEAFPQEQQKAPPVVGGFNSNVGSKVLGLKYEEIDCLINDEHTIKGRREGNEVFLPFTWVEKYFDVYGKVVQYDGYDRFEFSHSYSKVYAQRAPYHPDGVFMSFEGYNVEVRDRVKCISGVEGVPLSTQWGPQGYFYPIQIAQYGLSHYSKNLTEKPPHIEVYETAEDRDKNKPNDWTVPKGCFMANVADKSRFTNVKQFIAPETSEGVSLQLGNTKDFIISFDLKFLTNGSVSVVLETTEKNQLFTIHYVSNAQLIAFKERDIYYGIGPRTSWSTVTRDLVTDLRKGVGLSNTKAVKPTKIMPKKVVRLIAKGKGFLDNITISTTAHMAAFFAASDWLVRNQDEKGGWPIMVTRKLGEGFKSLEPGWYSAMAQGQAISTLVRAYLLTKDHIFLNSALRATAPYKFLSEQHGVKAVFMNKHDWYEEYPTTPSSFVLNGFMYSLIGLYDLKETAGEKLGKEARSLYERGMESLKAMLPLYDTGSGTIYDLRHFMLGIAPNLARWDYHTTHINQLQLLSTIDESPVFKEFVKRWKSYLKGSRAKHN [GLCE]	53.9	53.9	-0.0659	-0.914	-0.99	-0.162
MPAVSKGDGMRGLAVFISDIRNCKSKEAEIKRINKELANIRSKFKGDKALDGYSKKKYVCKLLFIFLLGHDIDFGHMEAVNLLSSNRYTEKQIGYLFISVLVNSNSELIRLINNAIKNDLASRNPTFMGLALHCIASVGSREMAEAFAGEIPKVLVAGDTMDSVKQSAALCLLRLYRTSPDLVPMGDWTSRVVHLLNDQHLGVVTAATSLITTLAQKNPEEFKTSVSLAVSRLSRIVTSASTDLQDYTYYFVPAPWLSVKLLRLLQCYPPPDPAVRGRLTECLETILNKAQEPPKSKKVQHSNAKNAVLFEAISLIIHHDSEPNLLVRACNQLGQFLQHRETNLRYLALESMCTLASSEFSHEAVKTHIETVINALKTERDVSVRQRAVDLLYAMCDRSNAPQIVAEMLSYLETADYSIREEIVLKVAILAEKYAVDYTWYVDTILNLIRIAGDYVSEEVWYRVIQIVINRDDVQGYAAKTVFEALQAPACHENLVKVGGYILGEFGNLIAGDPRSSPLIQFHLLHSKFHLCSVPTRALLLSTYIKFVNLFPEVKPTIQDVLRSDSQLRNADVELQQRAVEYLRLSTVASTDILATVLEEMPPFPERESSILAKLKKKKGPSTVTDLEDTKRDRSVDVNGGPEPAPASTSAVSTPSPSADLLGLGAAPPAPAGPPPSSGGSGLLVDVFSDSASVVAPLAPGSEDNFARFVCKNNGVLFENQLLQIGLKSEFRQNLGRMFIFYGNKTSTQFLNFTPTLICSDDLQPNLNLQTKPVDPTVEGGAQVQQVVNIECVSDFTEAPVLNIQFRYGGTFQNVSVQLPITLNKFFQPTEMASQDFFQRWKQLSNPQQEVQNIFKAKHPMDTEVTKAKIIGFGSALLEEVDPNPANFVGAGIIHTKTTQIGCLLRLEPNLQAQMYRLTLRTSKEAVSQRLCELLSAQF [AP2A2]	52.2	51.7	-0.202	-0.19	-0.622	-0.139
MSPEEWTYLVVLLISIPIGFLFKKAGPGLKRWGAAAVGLGLTLFTCGPHTLHSLVTILGTWALIQAQPCSCHALALAWTFSYLLFFRALSLLGLPTPTPFTNAVQLLLTLKLVSLASEVQDLHLAQRKEMASGFSKGPTLGLLPDVPSLMETLSYSYCYVGIMTGPFFRYRTYLDWLEQPFPGAVPSLRPLLRRAWPAPLFGLLFLLSSHLFPLEAVREDAFYARPLPARLFYMIPVFFAFRMRFYVAWIAAECGCIAAGFGAYPVAAKARAGGGPTLQCPPPSSPEKAASLEYDYETIRNIDCYSTDFCVRVRDGMRYWNMTVQWWLAQYIYKSAPARSYVLRSAWTMLLSAYWHGLHPGYYLSFLTIPLCLAAEGRLESALRGRLSPGGQKAWDWVHWFLKMRAYDYMCMGFVLLSLADTLRYWASIYFCIHFLALAALGLGLALGGGSPSRRKAASQPTSLAPEKLREE [MBOAT7]	56.9	57	-0.091	-1.37	-1.09	0.0131
MAAAYLDPNLNHTPNSSTKTHLGTGMERSPGAMERVLKVFHYFESNSEPTTWASIIRHGDATDVRGIIQKIVDSHKVKHVACYGFRLSHLRSEEVHWLHVDMGVSSVREKYELAHPPEEWKYELRIRYLPKGFLNQFTEDKPTLNFFYQQVKSDYMLEIADQVDQEIALKLGCLEIRRSYWEMRGNALEKKSNYEVLEKDVGLKRFFPKSLLDSVKAKTLRKLIQQTFRQFANLNREESILKFFEILSPVYRFDKECFKCALGSSWIISVELAIGPEEGISYLTDKGCNPTHLADFTQVQTIQYSNSEDKDRKGMLQLKIAGAPEPLTVTAPSLTIAENMADLIDGYCRLVNGTSQSFIIRPQKEGERALPSIPKLANSEKQGMRTHAVSVSETDDYAEIIDEEDTYTMPSTRDYEIQRERIELGRCIGEGQFGDVHQGIYMSPENPALAVAIKTCKNCTSDSVREKFLQEALTMRQFDHPHIVKLIGVITENPVWIIMELCTLGELRSFLQVRKYSLDLASLILYAYQLSTALAYLESKRFVHRDIAARNVLVSSNDCVKLGDFGLSRYMEDSTYYKASKGKLPIKWMAPESINFRRFTSASDVWMFGVCMWEILMHGVKPFQGVKNNDVIGRIENGERLPMPPNCPPTLYSLMTKCWAYDPSRRPRFTELKAQLSTILEEEKAQQEERMRMESRRQATVSWDSGGSDEAPPKPSRPGYPSPRSSEGFYPSPQHMVQTNHYQVSGYPGSHGITAMAGSIYPGQASLLDQTDSWNHRPQEIAMWQPNVEDSTVLDLRGIGQVLPTHLMEERLIRQQQEMEEDQRWLEKEERFLKPDVRLSRGSIDREDGSLQGPIGNQHIYQPVGKPDPAAPPKKPPRPGAPGHLGSLASLSSPADSYNEGVKLQPQEISPPPTANLDRSNDKVYENVTGLVKAVIEMSSKIQPAPPEEYVPMVKEVGLALRTLLATVDETIPLLPASTHREIEMAQKLLNSDLGELINKMKLAQQYVMTSLQQEYKKQMLTAAHALAVDAKNLLDVIDQARLKMLGQTRPH [PTK2]	53	53.2	-0.0233	0.562	0.0674	-0.0593
MSNIYIQEPPTNGKVLLKTTAGDIDIELWSKEAPKACRNFIQLCLEAYYDNTIFHRVVPGFIVQGGDPTGTGSGGESIYGAPFKDEFHSRLRFNRRGLVAMANAGSHDNGSQFFFTLGRADELNNKHTIFGKVTGDTVYNMLRLSEVDIDDDERPHNPHKIKSCEVLFNPFDDIIPREIKRLKKEKPEEEVKKLKPKGTKNFSLLSFGEEAEEEEEEVNRVSQSMKGKSKSSHDLLKDDPHLSSVPVVESEKGDAPDLVDDGEDESAEHDEYIDGDEKNLMRERIAKKLKKDTSANVKSAGEGEVEKKSVSRSEELRKEARQLKRELLAAKQKKVENAAKQAEKRSEEEEAPPDGAVAEYRREKQKYEALRKQQSKKGTSREDQTLALLNQFKSKLTQAIAETPENDIPETEVEDDEGWMSHVLQFEDKSRKVKDASMQDSDTFEIYDPRNPVNKRRREESKKLMREKKERR [CWC27]	47.3	49.8	0.0954	0.415	1.04	0.0672
